This note sets out measurements from publication PMC12585908, “Proteolytic cleavage activates the mitochondrial isoform of TOP3A”.

This series has as its target T1, TOP3A 917 (truncated) (Homo sapiens, UniProt Q13472 16-917).
T1 sequence: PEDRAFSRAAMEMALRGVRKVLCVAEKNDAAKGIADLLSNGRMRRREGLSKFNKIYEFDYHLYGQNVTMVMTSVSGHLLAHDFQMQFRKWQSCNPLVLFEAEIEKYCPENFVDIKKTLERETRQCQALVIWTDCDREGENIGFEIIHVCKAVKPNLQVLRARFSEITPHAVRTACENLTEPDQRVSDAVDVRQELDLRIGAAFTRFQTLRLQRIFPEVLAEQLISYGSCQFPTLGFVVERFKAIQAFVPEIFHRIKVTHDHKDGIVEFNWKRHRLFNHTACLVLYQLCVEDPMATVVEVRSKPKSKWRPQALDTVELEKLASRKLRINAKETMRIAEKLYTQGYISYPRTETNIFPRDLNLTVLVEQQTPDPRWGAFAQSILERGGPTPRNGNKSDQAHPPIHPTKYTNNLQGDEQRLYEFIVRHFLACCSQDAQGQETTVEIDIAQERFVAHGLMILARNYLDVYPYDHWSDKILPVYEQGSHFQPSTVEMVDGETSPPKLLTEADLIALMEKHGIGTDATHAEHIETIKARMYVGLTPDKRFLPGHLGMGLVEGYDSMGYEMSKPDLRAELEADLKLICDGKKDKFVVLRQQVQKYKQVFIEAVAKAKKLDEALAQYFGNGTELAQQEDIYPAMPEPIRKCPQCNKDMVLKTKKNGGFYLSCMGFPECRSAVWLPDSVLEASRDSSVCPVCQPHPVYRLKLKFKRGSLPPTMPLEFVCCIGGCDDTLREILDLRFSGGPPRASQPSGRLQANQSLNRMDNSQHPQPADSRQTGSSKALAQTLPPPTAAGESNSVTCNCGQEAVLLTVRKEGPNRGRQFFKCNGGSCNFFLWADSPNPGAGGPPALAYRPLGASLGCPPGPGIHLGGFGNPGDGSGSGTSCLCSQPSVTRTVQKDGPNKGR
Kind of series: EMSA; no Mg2+ added; higher binding than full-length; 25 mM HEPES pH 7.5, 70 mM NaCl, 100 ug/ml BSA, 1 mM DTT, 10% glycerol, 10 fmol DNA in 20 ul, 37 C 15 min; 8% PAGE in 0.5x TBE at 4 C. The conditions noted are these: protein: recombinant; tags: 6xHis removed with TEV (cloning section: N-terminal TEV-cleavable 6xHis; purification section says C-terminal 6xHis); label: 5' 32P; single strand. For orientation: Mobility shift assays separate free from complexed probe on a gel.

For TGTTATTATTATGTCCTACAAGCATTAATTAATTAACACA (ssDNA) [EMSA substrate (40 nt ssDNA)], the binding result is reported as “binds”.
